Source: patent publication US20090169546A1 (published 2009)
No end group written: not given here.

Columns and labels:
[1] = molecular target: T1, recombinant HMG1 produced in E. coli as calmodulin binding protein (CBP) fusion (human); test: cell-based or functional assay
T1 chain: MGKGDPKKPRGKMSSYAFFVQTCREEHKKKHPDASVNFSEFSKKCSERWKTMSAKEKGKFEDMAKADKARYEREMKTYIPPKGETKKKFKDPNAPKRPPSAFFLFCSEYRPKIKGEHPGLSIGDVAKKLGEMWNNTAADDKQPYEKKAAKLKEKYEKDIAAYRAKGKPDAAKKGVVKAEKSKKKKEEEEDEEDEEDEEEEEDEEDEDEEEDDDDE

[2] = molecular target: T2, released HMG1 from the conditioned media of necrotic 293H cells (human, UniProt P09429 1-215); test: sandwich ELISA, relative binding
T2 construct: also called necrotic HMG1
T2 sequence (looked up): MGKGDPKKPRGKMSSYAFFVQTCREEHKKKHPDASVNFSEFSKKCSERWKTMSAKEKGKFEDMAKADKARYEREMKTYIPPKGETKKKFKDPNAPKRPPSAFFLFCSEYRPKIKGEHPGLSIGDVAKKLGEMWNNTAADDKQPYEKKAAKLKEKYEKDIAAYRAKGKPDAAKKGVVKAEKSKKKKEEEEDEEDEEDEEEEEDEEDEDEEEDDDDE
Method: (§1) Sandwich ELISA (soluble HMG1): Immunoplates (EIA/RIA plate, High binding, Costar) were coated with anti human IgG Fc at 10 μg/ml in PBS (pH 7.2) and incubated at 4° C. overnight. The coating reagent was removed and the plates were rinsed briefly with PBS. The plates were then blocked with 4% milk for 1 hour at 37° C. and rinsed with PBS. The anti-HMG1 antibodies were diluted in 4% milk. For serial dilutions, the antibodies were used at a starting concentration of 20 μg/ml. The diluted anti-HMG1 antibodies were then added into plate and incubated for 1 hr at 37° C. The plate was then washed 10 times with PBST (PBS/0.1% tween 20) and incubate with antigen (HMGB1, 2 μg/ml; or 0.7 μg/ml for native HMGB1) in 4% milk and incubated at 37° C. for 1 h. The plate was then wash 10 times and incubated with mouse anti-HMGB1, 1 μg/ml in 4% milk at 37° C. for 1 h. The plate was washed 10 times and incubated with anti-mouse IgG-HRP at 1:1000 at 37° C. for 1 h. The plate was then washed and developed. HRP activity was detected with Sureblue HRP substrate (KPL). Plates were read at 450 nm using a Kinetic Microplate Reader (Molecular Devices).

[3] = molecular target: T3, native nuclear HMG1 prepared from 293H cells by freeze thaw (human, UniProt P09429 1-215); test: sandwich ELISA, relative binding
T3 sequence (looked up): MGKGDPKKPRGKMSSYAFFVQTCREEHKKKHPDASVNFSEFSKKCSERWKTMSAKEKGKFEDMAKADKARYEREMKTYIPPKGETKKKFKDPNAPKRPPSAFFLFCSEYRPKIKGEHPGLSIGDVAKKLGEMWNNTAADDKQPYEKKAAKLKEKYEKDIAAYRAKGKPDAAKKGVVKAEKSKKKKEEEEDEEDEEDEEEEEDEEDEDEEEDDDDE
Method: as §1

[4] = molecular target: T4, activated HMG1 prepared from LPS stimulated THP-1 cells (human, UniProt P09429 1-215); test: sandwich ELISA, relative binding
T4 construct: also called Native HMGB
T4 sequence (looked up): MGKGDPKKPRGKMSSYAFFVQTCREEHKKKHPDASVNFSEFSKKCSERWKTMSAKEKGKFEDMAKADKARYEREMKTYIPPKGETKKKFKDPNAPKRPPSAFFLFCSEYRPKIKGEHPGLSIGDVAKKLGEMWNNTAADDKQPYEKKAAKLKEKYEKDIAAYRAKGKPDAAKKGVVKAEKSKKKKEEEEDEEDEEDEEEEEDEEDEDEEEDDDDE
Method: as §1

[5] = molecular target: T5, actively secreted HMGB1 of LPS activated HUVEC cells (UniProt P09429 1-215); test: immunofluorescence on LPS treated HUVEC, antibody 1 ug/ml
T5 sequence (looked up): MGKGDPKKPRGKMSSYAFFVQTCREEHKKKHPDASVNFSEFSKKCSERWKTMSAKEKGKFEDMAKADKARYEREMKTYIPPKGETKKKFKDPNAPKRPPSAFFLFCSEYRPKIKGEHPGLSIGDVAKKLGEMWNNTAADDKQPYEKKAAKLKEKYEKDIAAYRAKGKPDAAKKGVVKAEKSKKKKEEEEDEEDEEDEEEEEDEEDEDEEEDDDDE
Method: (§2) Immunofluorescence: Intracytoplasmic (ic) HMGB1 was quantitated by direct immunofluorescence. HUVEC were harvested by trypsin-EDTA treatment and seeded on a glass coverslip. Once the cells are settled, they were stimulated with 0.2 μg/ml of LPS (Sigma) for 4 hours. The cells were fixed in 2% paraformaldehyde for 15 min and then permeabilized in 0.2% Triton X-100 for 2 min. Fixed and permeabilized cells were incubated with anti-HMGB1 antibodies at 1 μg/ml for 1 hour at room temperature. Cells were then washed to remove excess or nonspecifically bound primary antibody followed by incubation with anti human IgG conjugated with fluorescence (Pierce). The sections were mounted with fluoromount (Southern Associates, Birmingham, Ala.), and the images were processed with a Nikon microscope (Japan) and a SPOT imaging system (Diagnostic Instrument).
(§3) As noted above, the different antibodies bind differently to HMGB1 isolated or prepared from different sources. To expand this observation the anti-HMBG1 antibodies G4 and S6 were used for immunostaining of untreated or LPS activated THp-1 (not shown) and HUVEC cells (FIG. 4F). […] As nuclear HMHB1 binds to DNA and histones, which might be disrupted after cell freeze and thaw we immunoprecipitate freeze thaw preparation and probed for histones by Western Blot. No DNA or histones could be detected from this preparation (data not shown). […]

[6] = molecular target: T6, nuclear HMGB1 in HUVEC cells (UniProt P09429 1-215); test: immunofluorescence on HUVEC, antibody 1 ug/ml
T6 construct: HUVEC are human cells; also called nuclear HMGB1 (immunostaining)
T6 sequence (looked up): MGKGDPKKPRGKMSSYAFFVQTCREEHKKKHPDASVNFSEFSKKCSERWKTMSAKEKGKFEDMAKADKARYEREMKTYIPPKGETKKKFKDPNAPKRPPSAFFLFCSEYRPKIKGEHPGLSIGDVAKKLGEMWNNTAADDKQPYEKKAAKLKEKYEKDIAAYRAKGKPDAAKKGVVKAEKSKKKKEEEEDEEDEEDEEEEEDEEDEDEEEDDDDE
Method: as §2, §3

[7] = molecular target: T1, recombinant HMG1 produced in E. coli as …; test: BIAcore 3000; mAb amine-coupled to CM5, HMG1 injected in two-fold dilutions; steady-state model
Method: HMG1 Binding Affinity via BIAcore Analysis: All experiments were performed on a BIAcore 3000 instrument (BIAcore, Inc., Piscataway, N.J.). Briefly, each mAb was immobilized to a CM5 sensor chip using a standard amine coupling chemistry. Separately a reference (control) flow cell was also prepared. Two-fold, serial dilutions of HMG1 in instrument buffer were sequentially injected at a slow flow rate over the individual mAb and reference flow-cell surfaces. Following the binding and dissociation of HMG1, the mAbs surfaces were regenerated with a brief pulse of 1M NaCl-50 mM NaOH. At the end of each experiment, the binding curves were evaluated using a steady-state model available through the BIAevaluation software supplied by BIAcore, Inc. (Piscataway, N.J.).

[8] = molecular target: T7, HMGB1 B-box peptide 91-108 (human, also: biotinylated, site not given here); test: ELISA on biotinylated peptides captured on avidin
T7 peptide: DPNAPKRPPSAFFLFCSE
Method: The plate was then blocked with 4% milk powder dissolved in PBS at 37° C. for 1 hour. The blocking solution was removed and replaced with human anti-HMG1 antibodies at various concentrations (see FIGS. 5A-B). […] HRP activity was detected with Sureblue HRP substrate (KPL). Plates were read at 450 nm using a Kinetic Microplate Reader (Molecular Devices). […] After washing and blocking with 1% BSA in PBS, the biotinylated peptides were individually added into the avidin coated wells and incubated for 30 min at room temperature. The serial diluted antibody G4, S16 and S6 at the initial concentration at 10 μg/ml were then transferred into the wells followed by adding mouse anti human IgG-HRP conjugate (Pierce). Detection was accomplished by adding 50 μl of tetramethylbenzidine (TMB) substrate (KPL) and the absorbance was read at 450 nm.

B1: anti-HMG1 antibody G4 (antibody, V domains shown)
VH: EVQLLESGGGLVQPGGSLRLSCAASGFTFSWYDMTWVRQAPGKGLEWVSSISPSGGYTKYADSVKGRFTISRDNSKNTLYLQMNSLRAEDTAVYYCTTEFYDYLDVWGKGTTVTVSS
VL: DIQMTQSPGTLSLSPGEGATLSCRASQSVSSTYLAWYQQKPGQAPRLLIYEASKRATGTPARFSGSGSGTDFTLSISSLEPEDFAVYYCQHRHNWPPQWTFGQGTKVEVK
notes: also called ATCC PTA-6258
IC50, inhibition of rHMG1 stimulated IL-1β release from human PBMCs [1]: 5.01 µg/mL | IC50, inhibition of rHMG1 stimulated IL-6 release from human PBMCs [1]: 0.9 nM | IC50, inhibition of rHMG1 stimulated IL-12 release from human PBMCs [1]: 0.715 µg/mL | IC50, inhibition of rHMG1 stimulated TNF-α release from human PBMCs [1]: 5.51 µg/mL | binding result [2]: binds | binding result [3]: binds | binding result [4]: binds | binding result [5]: binds | binding result [6]: binds | Kd [7]: 30 nM | binding result [8]: binds
